The record followed here is patent US20230365714A1 (published 2023).

The target of experiment [1] is T1, ROR121 shuffle variant (Ig-like domain of ROR1, CRD of ROR2, kringle domain of ROR1) (human (ROR1/ROR2 chimera), UniProt Q01973 30-937).
T1 construct: Transiently expressed on CHO cells
T1 chain: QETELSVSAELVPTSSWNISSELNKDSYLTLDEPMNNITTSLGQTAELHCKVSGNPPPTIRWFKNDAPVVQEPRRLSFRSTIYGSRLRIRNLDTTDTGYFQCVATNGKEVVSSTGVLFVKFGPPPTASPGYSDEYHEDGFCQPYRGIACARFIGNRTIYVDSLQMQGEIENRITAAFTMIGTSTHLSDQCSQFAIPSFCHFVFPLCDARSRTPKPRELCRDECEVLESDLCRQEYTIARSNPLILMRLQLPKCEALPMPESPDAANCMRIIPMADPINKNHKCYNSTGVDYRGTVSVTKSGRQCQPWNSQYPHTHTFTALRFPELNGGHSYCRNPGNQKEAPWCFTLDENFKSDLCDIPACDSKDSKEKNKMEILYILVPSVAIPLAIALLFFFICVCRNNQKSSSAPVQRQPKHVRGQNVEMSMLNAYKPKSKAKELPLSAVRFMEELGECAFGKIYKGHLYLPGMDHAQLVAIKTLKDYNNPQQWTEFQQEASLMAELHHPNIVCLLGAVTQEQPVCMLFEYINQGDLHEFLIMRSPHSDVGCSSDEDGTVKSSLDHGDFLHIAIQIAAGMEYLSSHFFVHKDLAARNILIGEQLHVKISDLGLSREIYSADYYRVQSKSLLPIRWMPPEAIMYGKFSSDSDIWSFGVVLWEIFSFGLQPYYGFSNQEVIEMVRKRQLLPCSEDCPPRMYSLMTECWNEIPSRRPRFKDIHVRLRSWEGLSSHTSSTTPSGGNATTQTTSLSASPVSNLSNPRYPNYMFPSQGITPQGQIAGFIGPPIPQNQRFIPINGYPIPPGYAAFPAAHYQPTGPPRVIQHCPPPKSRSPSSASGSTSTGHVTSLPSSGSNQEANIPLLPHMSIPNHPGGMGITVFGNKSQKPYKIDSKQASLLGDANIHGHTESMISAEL
The experiment can be described thus: cell imaging (CellInsight) on CHO cells expressing the shuffle construct. As to the method:
(§1) Binding was determined […] using a cell imaging screening system (Celllnsight, Thermo Fisher) as per manufacturer's recommendations. In short, CHO cells expressing shuffle constructs ROR112, ROR121, ROR122, ROR211 or ROR221 (3,000 cells/well in 384-well plates) were incubated with antibody or control samples for 18 h at 37° C./5% CO₂, washed and incubated with an Alexa488-labeled detection antibody for 4 h. Hoechst dye was added and fluorescence images were collected, measuring total spot intensity (RFU).

Experiment [2] has as its target T2, ROR211 shuffle variant (Ig-like domain of ROR2, CRD and kringle domain of ROR1) (human (ROR1/ROR2 chimera), UniProt Q01973 18-937).
T2 construct: Transiently expressed on CHO cells
T2 chain: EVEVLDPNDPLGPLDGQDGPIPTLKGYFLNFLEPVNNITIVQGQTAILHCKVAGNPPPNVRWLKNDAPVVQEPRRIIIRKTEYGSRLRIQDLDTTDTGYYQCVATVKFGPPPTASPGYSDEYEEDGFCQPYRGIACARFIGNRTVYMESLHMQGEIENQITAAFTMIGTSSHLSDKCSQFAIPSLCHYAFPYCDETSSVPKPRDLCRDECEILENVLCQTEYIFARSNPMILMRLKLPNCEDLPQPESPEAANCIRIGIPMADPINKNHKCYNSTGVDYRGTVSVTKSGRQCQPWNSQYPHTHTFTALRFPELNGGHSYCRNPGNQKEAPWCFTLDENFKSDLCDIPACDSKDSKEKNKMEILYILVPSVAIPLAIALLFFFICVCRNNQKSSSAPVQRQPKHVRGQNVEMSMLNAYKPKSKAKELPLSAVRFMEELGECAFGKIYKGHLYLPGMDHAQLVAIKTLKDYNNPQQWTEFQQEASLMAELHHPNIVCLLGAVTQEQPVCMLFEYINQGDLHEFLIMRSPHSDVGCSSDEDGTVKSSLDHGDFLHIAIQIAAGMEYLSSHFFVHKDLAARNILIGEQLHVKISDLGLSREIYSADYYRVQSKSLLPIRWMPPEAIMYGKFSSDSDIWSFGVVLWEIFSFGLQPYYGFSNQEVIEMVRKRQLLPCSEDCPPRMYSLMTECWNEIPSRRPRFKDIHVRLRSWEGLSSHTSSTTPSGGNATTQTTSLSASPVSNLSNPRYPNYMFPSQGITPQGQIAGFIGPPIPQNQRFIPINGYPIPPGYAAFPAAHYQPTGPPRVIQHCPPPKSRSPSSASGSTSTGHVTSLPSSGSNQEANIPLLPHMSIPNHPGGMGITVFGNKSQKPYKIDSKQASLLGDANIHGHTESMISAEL
The experiment is described as above. As to the method: as §1

B1: chIgG1-ROR2-A (antibody, V domains shown)
VH: QSVEESGGRLVTPGTPLTLTCTVSGFSLSSYSMSWVRQAPGKGLEWIGVIYVNSKTWYANWAKGRFTISKTSTTVDLKITSPTTEDTATYFCARGDAGYTTNSWLWGPGTLVTVSS
VL: AFELTQTPASVSEPVGGTVTIKCQASESIDNYCSWYQQKPGQPPKLLIYQAFKLASGVPSRFRGSGSGTQFTLTISDLESDDAATYYCQSYSGISTTAFGGGTEVVVK
notes: Rabbit-human chimeric antibody; also called ROR2 specific antibody A
With B1, in experiment [1], the “RFU (total spot intensity)” value stood at 0 RFU and the binding result is reported as “no binding (tested: RFU = 0)”. Besides, in experiment [2], the “RFU (total spot intensity)” value amounted to 0 RFU and the binding result was “no binding (tested: RFU = 0)”.
